The text below walks through data of article PMC11797554, “Chemical genetics reveals cross-regulation of plant developmental signaling by the immune peptide-receptor pathway” (Science Advances, 2024).

Broadly, the Kd is the free concentration of one partner at which half of the binding sites on the other are occupied at equilibrium, for simple one-to-one binding. High values mean weaker binding, low ones tighter binding.

The target in experiment [1] is MPK6ΔNt (29 to 305) (Arabidopsis) (UniProt Q39026). The experiment is described as follows: ITC; SCRM KiDoK peptide to MPK6ΔNt (29 to 305), without kC9; 25°C, Malvern PEAQ-ITC; PBS pH 7.4 with 2% DMSO. In general terms: ITC needs no label: the signal is the heat of the interaction.
For experiment [2] the target is unchanged. The experiment is described as follows: ITC; SCRM KiDoK peptide to MPK6ΔNt (29 to 305) preincubated with the small molecule kC9; 25°C, Malvern PEAQ-ITC; PBS pH 7.4 with 2% DMSO.
The target of experiment [3] is SCRM KiDoK peptide (Arabidopsis). The experiment is described as follows: BLI; biotinylated SCRM KiDoK peptide (500 nM) loaded on streptavidin probes; MPK6 as analyte at 150-4.68 nM; without kC9; Octet Red96, 25°C; 1x PBS, 2% DMSO, 0.02 Tween 20, 0.1% BSA; 1:1 model, Kd from kobs with steady-state analysis. In general terms: In BLI a coated tip is dipped into the sample, and binding shifts an interference pattern.

Experiment [4] has the same target. In words: BLI; as a1 but analyte MPK6 preincubated with the small molecule kC9 (MPK6:kC9 1:1.5), 150-4.68 nM; biotinylated SCRM KiDoK peptide on streptavidin probes; 25°C; 1x PBS, 2% DMSO, 0.02 Tween 20, 0.1% BSA.

Take SCRM KiDoK peptide: the dissociation constant (Kd) in experiment [1] is 43.4 nM; in experiment [2] it was 1400 nM.

Take “MPK6ΔNt (29 to 305) (from UniProt Q39026 29-305) (domain or fragment)”: the values for the Kd in experiment [3] and in experiment [4] were 40.1 nM and 856 nM, respectively.
